Measured values from paper doi:10.1101/2025.10.27.684894, “Alternative splicing of synaptotagmin 7 regulates oligomerization and short-term synaptic plasticity” (bioRxiv, 2025).

Molecular target: T1, Halo-tagged α-syt7cyto (cytoplasmic domain of synaptotagmin 7 α, immobilised on HaloLink resin) (mouse, UniProt Q9R0N7 38-403)
T1 construct: synaptotagmin 7, α splice variant, cytoplasmic domain; The Halo-tagged construct is not described under DNA constructs; The sentence on syt1-fl says only 'immobilized syt7'; also called immobilized syt7; source: purified Halo-tagged protein; recombinant proteins were expressed in E. coli BL21(DE3)
Assay: pull-down; Halo-tagged bait immobilised on HaloLink resin (7 μM bait), prey syt1-fl in DOPC proteoliposomes; 25 mM HEPES pH 7.4, 100 mM KCl, 0.2 mM EGTA or 1.2 mM Ca2+; 1 h at 25 °C; supernatants analysed by SDS-PAGE and Western blot
Details: both partners purified

T1 sequence (Q9R0N7 38-403): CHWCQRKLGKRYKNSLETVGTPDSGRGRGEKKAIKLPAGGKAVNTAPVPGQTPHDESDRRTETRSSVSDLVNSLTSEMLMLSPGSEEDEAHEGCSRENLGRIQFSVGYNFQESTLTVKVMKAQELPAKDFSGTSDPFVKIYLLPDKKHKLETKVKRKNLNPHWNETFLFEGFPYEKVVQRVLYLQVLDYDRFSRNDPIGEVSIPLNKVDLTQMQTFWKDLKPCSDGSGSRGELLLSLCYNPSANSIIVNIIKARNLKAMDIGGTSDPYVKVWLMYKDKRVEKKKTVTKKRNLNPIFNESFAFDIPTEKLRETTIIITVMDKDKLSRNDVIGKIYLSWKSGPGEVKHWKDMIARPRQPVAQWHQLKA

B1: syt1-fl (full-length synaptotagmin 1, reconstituted into liposomes) (natural protein, rat, UniProt P21707 1-421, looked up)
chain: MVSASHPEALAAPVTTVATLVPHNATEPASPGEGKEDAFSKLKQKFMNELHKIPLPPWALIAIAIVAVLLVVTCCFCVCKKCLFKKKNKKKGKEKGGKNAINMKDVKDLGKTMKDQALKDDDAETGLTDGEEKEEPKEEEKLGKLQYSLDYDFQNNQLLVGIIQAAELPALDMGGTSDPYVKVFLLPDKKKKFETKVHRKTLNPVFNEQFTFKVPYSELGGKTLVMAVYDFDRFSKHDIIGEFKVPMNTVDFGHVTEEWRDLQSAEKEEQEKLGDICFSLRYVPTAGKLTVVILEAKNLKKMDVGGLSDPYVKIHLMQNGKRLKKKKTTIKKNTLNPYYNESFSFEVPFEQIQKVQVVVTVLDYDKIGKNDAIGKVFVGYNSTGAELRHWSDMLANPRRPIAQWHTLQVEEEVDAMLAVKK
notes: synaptotagmin 1, rat cDNA from T. C; Sudhof (Perin et al., 1990); the D374 mutation of that cDNA was corrected to glycine, so residue 374 is G; also called SUMO-syt1-fl; source: E. coli BL21(DE3), purified (with 0.9% CHAPS; cleaved from the beads with SUMO protease), reconstituted into DOPC proteoliposomes
  ratio of binding in Ca2+ to binding in EGTA: 1.46 ± 0.15
